In publication PMC7968997 one finds binding signal and Kd data, which are given here for 1 molecule.

Common to all, as to assay: fluorescence polarization
Background: In fluorescence polarisation assays a small probe gives low polarisation when free and higher when bound to something large.

In series [1] the target is T1, RBM45 RRM1-2 quadruple mutant (Homo sapiens, UniProt Q8IUH3 23-202, F29A;F70A;F124A;Y165A).
T1 sequence: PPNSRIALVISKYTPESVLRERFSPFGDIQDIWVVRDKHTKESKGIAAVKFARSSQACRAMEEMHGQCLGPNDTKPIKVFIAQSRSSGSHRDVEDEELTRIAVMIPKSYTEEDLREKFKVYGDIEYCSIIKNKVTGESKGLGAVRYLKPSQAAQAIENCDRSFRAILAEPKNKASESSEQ

The target of a further series is T2, RBM45 RRM1-2 WT (Homo sapiens, UniProt Q8IUH3 23-202).
T2 sequence: T1 sequence with A7F, A48F, A102F, A143Y

Series [2] concerns the target T3, RBM45 RRM1-2 F29A/F70A (RRM2 analog) (Homo sapiens, UniProt Q8IUH3 23-202, F29A;F70A).
T3 sequence: T1 sequence with A102F, A143Y

The target of another series is T4, RRM1 analog F70A (Homo sapiens, UniProt Q8IUH3 23-202, F70A;F124A;Y165A).
T4 sequence: T1 sequence with A7F

The target in the next series is T5, RRM1 analog R27A (Homo sapiens, UniProt Q8IUH3 23-202, R27A;F124A;Y165A).
T5 sequence: T1 sequence with R5A, A7F, A48F

The target in the next series is T6, RRM2 analog R122A (Homo sapiens, UniProt Q8IUH3 23-202, F29A;F70A;R122A).
T6 sequence: T1 sequence with R100A, A102F, A143Y

The target in the next series is T7, RRM1 analog K100A (Homo sapiens, UniProt Q8IUH3 23-202, K100A;F124A;Y165A).
T7 sequence: T1 sequence with A7F, A48F, K78A

Series [3] deals with T8, RBM45 RRM1-2 F124A/Y165A (RRM1 analog) (Homo sapiens, UniProt Q8IUH3 23-202, F124A;Y165A).
T8 sequence: T1 sequence with A7F, A48F

Substitutions are numbered along the chain they refer to.

One may read the Kd as the concentration at which binding is half-saturated. On to GGACGG (ssRNA) [GGACGG RNA], for which the binding signal in series [1] was approximately 150 fold decrease vs WT. Further, the equilibrium dissociation constant (Kd) with RBM45 RRM1-2 WT was 0.457 ± 0.053 µM; in series [2] it was 1.48 ± 0.11 µM; with RRM1 analog F70A, 16.8 µM; in the series with RRM1 analog R27A, 14.4 µM; with RRM2 analog R122A, 18.7 µM; with RRM1 analog K100A, 4.59 µM. The Kd in series [3] turned out to be 0.788 ± 0.092 µM.
